PMC3684959 (2013)

Target: Arp2/3 complex (Bos taurus, UniProt A7MB62, CK-666)
Assay: fluorescence anisotropy

B1: cortactin NTA N-terminal acidic region (protein)
chain: MWKASAGHAVSIAQDDAGADDWETDPDFVNDVSEKEQRWGAKTVQGSGHQEHINIHKLRENVFQEHQTLKEKELETGPKASHGY
- Kd: 1.2 µM
